# ± gives the standard deviation.
# Assay: protein stability index of a GFP-peptide fusion (GPS, HEK-293T) (PSI 1-6); higher = more stable
# [1] = treatment: DMSO, c terminus: a fixed tail appended
# [2] = treatment: MLN4924 1 uM, 8 h, c terminus: a fixed tail appended
# 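Further: 24-mer peptide tiles fused after GFP, lentivirally expressed, FACS-sorted into six equal bins by GFP/DsRed ratio, decoded by Illumina sequencing, PSI is the read-weighted mean bin number.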
Sequence,protein stability index [1],protein stability index [2],"protein stability index (treatment: DMSO, c terminus: native)","protein stability index (treatment: MLN4924 1 uM, 8 h, c terminus: native)"
MQIEFIKQGSMNFRFIPVLFPNAK [TRAF3IP2],2.96 ± 0.71,2.45 ± 0.58,–,–
IRINPQSWFDNGSICMRMEILGCP [CPXM2],2.86 ± 0.53,2.68 ± 0.59,–,–
AVTSLSSQIQYMNTVVSTYVTTNV [TMEM106C],2.58 ± 0.67,2.51 ± 0.39,–,–
CGDELPWTLQRRLTRLRTASGHEP [PLEKHN1],2.68 ± 0.12,2.7 ± 0.34,–,–
YLTIILILISFTCRFLLNSRVTDA [TMEM120A],3.19 ± 0.26,3.12 ± 0.24,–,–
IFRSKLKNRPSSEGSINKILSGLD [CDC14A],2.27 ± 0.32,2.69 ± 0.42,–,–
STFSTNYRSLGSVQAPSYGARPVS [KRT18],3.53 ± 0.16,3.61 ± 0.2,–,–
SNLCCFIPGKVIDEIYRVLRYVNS [FBXO28],2 ± 0.66,2.38 ± 0.26,–,–
VLCLIVLPLALYTATFAVHFMVLS [POMT2],3.17 ± 0.19,3.34 ± 0.43,–,–
FRVFHCTQYVRHSSDPFYTPEPDT [TPH1],2.15 ± 0.19,2.27 ± 0.35,–,–
PPVWYLKEEDHYQRARKEREKEDY [RHOBTB2],5.16 ± 0.12,5.22 ± 0.16,–,–
VSAYVDTTADLDRKLSFSHSDHSS [SPATS1],3.83 ± 0.1,4.08 ± 0.24,–,–
QDLCCRTIVSCTPVHLVDKLPLPS [RAB40A],2.34 ± 0.26,2.39 ± 0.35,–,–
QLFEDPTVDKEVEIRKKVLKIYNK [MNAT1],3.41 ± 0.18,3.5 ± 0.29,–,–
SRNRDPGRLILSTIRLRPRQVLCE [PWWP2B],2.68 ± 0.18,3.04 ± 0.25,–,–
STVKDCATIFALSTMTSSVQIYNL [ATL3],3.08 ± 0.68,3.25 ± 0.59,–,–
KLSPLRDRLVVTECQLTHSHPACP [ZSWIM9],3.56 ± 0.38,3.55 ± 0.27,–,–
GDVLHAHLDIWKSAAWMKERTSPG [SPDEF],2.92 ± 0.48,3.06 ± 0.46,–,–
LGFKANIMNEKCVVENAEKILGYL [SLC6A17],2.43 ± 0.23,2.26 ± 0.14,–,–
MGKRDTADIISTVEFNHTGELLAT [PPP2R2C],3.62 ± 0.21,3.89 ± 0.31,–,–
NCVSSVYLYYDPDYSFLSLGVYSA [ATE1],3.23 ± 0.41,3.27 ± 0.11,–,–
PRIWSLAHTATASAVEGAPPARPR [IRX6],4.44 ± 0.26,4.43 ± 0.11,–,–
EEIKTWGTVFQELNKLYPTHACRE [TPH1],2.95 ± 0.23,3.02 ± 0.28,–,–

Sequence,protein stability index [1],protein stability index [2],"protein stability index (treatment: DMSO, c terminus: native)","protein stability index (treatment: MLN4924 1 uM, 8 h, c terminus: native)"
VELYRIKFKESFAEMNRGSNEWKT [COX4I1],2.23 ± 0.29,2.07 ± 0.45,–,–
GRQLEKVPEKRDSGMTEVERTYSA [SPATS1],5.22 ± 0.3,5.24 ± 0.4,–,–
PEEKKEEEGSANRRPEDQELESLS [CHGA],5.58 ± 0.34,5.71 ± 0.12,–,–
KCKKKITGEIMHALKMTWHVHCFT [PDLIM7],2.81 ± 0.81,2.7 ± 0.12,–,–
SGKWTFQRDSKRWSRLEEFDVFSP [DLC1],2.46 ± 0.28,2.53 ± 0.34,–,–
TEATISIREDEVHRLGSPYGHCTA [SCNN1D],3.93 ± 0.29,3.88 ± 0.16,–,–
DTYIVLAWISKIKGSPDVSASSDE [SMIM2],2.42 ± 0.6,2.41 ± 0.27,–,–
QEGAASKVLGRLRALSDTTEELTV [SLC2A12],4.46 ± 0.31,4.65 ± 0.37,–,–
AYALPAGLSAPARCLVRCLLRREP [TRIB3],2.23 ± 0.49,1.87 ± 0.31,–,–
HNSINQSLDESVIYGPGNLSTNNN [SLC2A12],4.68 ± 0.34,4.7 ± 0.055,–,–
LIKAGADIELGCSTPLMEAAQEGH [ANKRD17],4.21 ± 0.57,4.14 ± 0.35,–,–
YLTNCEKLSAKSLQTLRSFSHTLV [ZER1],2.3 ± 0.16,2.24 ± 0.38,–,–
DLERQNQEYQVLLDVRARLECEIN [KRT33B],3.39 ± 0.29,3.58 ± 0.22,–,–
VSISIISSTSGGSGYGFRPSMVSG [KRT71],2.84 ± 0.52,3.01 ± 0.93,–,–
GGEAAHHTRSPYSTFYPPYHSPEL [NEUROD6],3.38 ± 0.2,3.58 ± 0.12,–,–
SAEYVGHLRATEKMKTRELHRESS [HDAC6],4.62 ± 0.36,4.47 ± 0.4,–,–
ELNKQVVSSSEQLQSCQAEIIELR [KRT34],3.82 ± 0.33,4.04 ± 0.53,–,–
HYRASEEEPEYGEEIKGYPGVQAP [CHGB],4.64 ± 0.23,5.04 ± 0.36,–,–
AVMFFIVFFAYAQLGYLLFGTQVE [PKD2L1],2.7 ± 0.48,2.73 ± 0.44,–,–
KLWDPVDGSVVRDFEHRPKAPVVE [WDR88],4.08 ± 0.23,4.23 ± 0.2,–,–
MAAWGKKHAGKDPVRDECEERNRF [FAM9B],4.59 ± 0.23,4.62 ± 0.34,–,–
YYIPLVELVPHPETAPTTVDRTHA [CRYL1],3.06 ± 0.28,3.1 ± 0.26,–,–
LTRIRKWIEHSKLREINFKIVEFN [GLT8D2],2.48 ± 0.44,2.51 ± 0.39,–,–

Sequence,protein stability index [1],protein stability index [2],"protein stability index (treatment: DMSO, c terminus: native)","protein stability index (treatment: MLN4924 1 uM, 8 h, c terminus: native)"
PKPADFRNPGPGRHRLITQVYLSH [INTS4],2.59 ± 0.17,2.57 ± 0.24,–,–
IQYEMEYTEGISQRMRVPEKLKVA [MFF],2.98 ± 0.28,3.08 ± 0.64,–,–
NIIAIAATNNLYIFQDKVNSDMH [PPP2R2C],–,–,2.36 ± 0.49,2.09 ± 0.2
SDLNEVPVKELAALPKATILDLSC [LRRC59],3.96 ± 0.052,4.01 ± 0.3,–,–
SMISMGLFSIAPLIYGSMEMFPAA [JAGN1],3.08 ± 0.29,3.23 ± 0.32,–,–
LTMNSEDERRDAEERASLAGNRNS [KCNK9],5.56 ± 0.082,5.5 ± 0.22,–,–
MALPGARARGWAAAARAAQRRRRV [RSAD1],4.64 ± 0.15,4.61 ± 0.17,–,–
GPPVGPLSLGLATVDIQNPDITSS [WAS],4.68 ± 0.23,4.39 ± 0.24,–,–
PKSLVRLSLEAVICFKEMLANSWN [KLHDC2],2.41 ± 0.65,2.49 ± 0.3,–,–
RTDVGITHQHWQQFEPQLTLWDVF [RSAD1],2.25 ± 0.4,2.38 ± 0.39,–,–
DNAPAVLHPRPDWEHSAPQRLPRS [PCDHGC5],4.72 ± 0.17,4.81 ± 0.17,–,–
KVRSYVKRALAEGAQIWCGEGVDK [ALDH8A1],2.77 ± 0.098,2.78 ± 0.29,–,–
FMLRYLYSQKESGHSNWLGDPEEP [ATL3],2.75 ± 0.33,2.06 ± 0.48,–,–
MPYNFCLPSLSCRTSCSSRPCVPP [KRT33B],2.34 ± 0.41,2.18 ± 0.45,–,–
PVPPGWNPNSSSGKGSGGNAGSYI [DLX1],3.86 ± 0.21,3.93 ± 0.24,–,–
CWYCNRDFDDEKILIQHQKAKHFK [ZNF207],4.59 ± 0.39,4.45 ± 0.22,–,–
QIAQLEASLAAAKKQLADETLLKV [LMNB1],2.72 ± 0.65,2.8 ± 0.46,–,–
NLAAAAADIPQDQLVVMHPTPQVD [BTBD10],5.14 ± 0.21,5.13 ± 0.21,–,–
PSSSGHLADSDTLSSAEENEPSQA [C18orf25],5.56 ± 0.22,5.52 ± 0.11,–,–
ALDEAAAALTRMRAESTANAGQSD [ANKRD17],5.49 ± 0.17,5.36 ± 0.25,–,–
ASEFLEQSMSQTRELLLDGGYLQR [RSPH3],3.58 ± 0.43,3.55 ± 0.51,–,–
VDIGMMKEFILTDEEVQRKREMIL [VDR],3.24 ± 0.19,3.24 ± 0.19,–,–
MSSRKVLAIQARKRRPKREKHPKK [SRPK2],4.41 ± 0.28,4.46 ± 0.52,–,–

Sequence,protein stability index [1],protein stability index [2],"protein stability index (treatment: DMSO, c terminus: native)","protein stability index (treatment: MLN4924 1 uM, 8 h, c terminus: native)"
PPRIPQADQWKSSNKSLVEALGLE [RHOBTB1],4.45 ± 0.27,4.33 ± 0.26,–,–
YQGLPVRCVKSIIRQVLQGLDYLH [SRPK2],2.45 ± 0.27,2.59 ± 0.41,–,–
EPMWSGSTMRRMALRPTAFSGCLN [EMID1],2.82 ± 0.27,2.79 ± 0.16,–,–
ALRKIIKTLAVKNEEIQSFIYSLK [FSD1],2.87 ± 0.45,2.89 ± 0.42,–,–
TWTKHAEGGIFTSPNYPSKYPPDR [NETO1],3.94 ± 0.19,3.85 ± 0.065,–,–
MNRAFSRKKDKTWMHTPEALSKHF [GULP1],2.69 ± 0.21,2.85 ± 0.14,–,–
YFTQTLLPGLAGPSGEMVKSTTSL [MLH1],–,2.51 ± 0.21,–,–
ADIDHDQALAQAIKEAKEQHPDMS [EPB41L3],5.56 ± 0.17,5.51 ± 0.31,–,–
FVAGGISGTVAAVLTLPFDVVKTQ [SLC25A39],2.95 ± 0.63,2.76 ± 0.84,–,–
FDTFIQKTKKLYIDSRARRNLGSI [SEC22B],2.48 ± 0.5,2.22 ± 0.12,–,–
QGASESQAPGEENLLGEAAGGQDM [HDAC6],5.54 ± 0.22,5.45 ± 0.2,–,–
QAAVAAGDVHTVRKMLEQGYSPNG [ASB7],4.09 ± 0.31,4.11 ± 0.12,–,–
FGSRSLYSLGGVRSLNVASGSGKS [KRT71],2.35 ± 0.77,3.01 ± 0.82,–,–
TQIKGLKNKPKKMGHIKPDLIDVD [PHTF1],4.42 ± 0.16,4.34 ± 0.26,–,–
PPGGSGSEPYKLLPGAVATIVKPL [HNF4A],3.59 ± 0.11,3.58 ± 0.18,–,–
SARDASPTPSTDAEYPANGSGADR [NCK2],5.51 ± 0.17,5.53 ± 0.25,–,–
ADGSPPLLPPGEPPLLGTFPRDHT [ANKRD40],4.8 ± 0.28,4.49 ± 0.21,–,–
EEKRRREEEERLRREEEERRRIEE [ACBD3],5.53 ± 0.29,5.49 ± 0.28,–,–
GREYPDAQGFAADVRLMFSNCYKY [BRD3],2.38 ± 0.21,2.59 ± 0.29,–,–
PNVIEYYENFLEDKALMIAMEYAP [NEK8],2.32 ± 0.21,2.25 ± 0.21,–,–

# Source: the supplement of paper PMC10567573
